Laboratory results reported in patent US20240409647A1 (SINOMAB BIOSCIENCE, published 2024).

Assays:
[1] = target: T1, human IL-17RB protein (recombinant, R&D systems) (human); experiment: ELISA, coated receptor; SM17 at 0.08 µg/mL; well 1
T1 construct: Bought protein; also called hIL17RB
T1 sequence (Q9NRM6 whole entry, looked up): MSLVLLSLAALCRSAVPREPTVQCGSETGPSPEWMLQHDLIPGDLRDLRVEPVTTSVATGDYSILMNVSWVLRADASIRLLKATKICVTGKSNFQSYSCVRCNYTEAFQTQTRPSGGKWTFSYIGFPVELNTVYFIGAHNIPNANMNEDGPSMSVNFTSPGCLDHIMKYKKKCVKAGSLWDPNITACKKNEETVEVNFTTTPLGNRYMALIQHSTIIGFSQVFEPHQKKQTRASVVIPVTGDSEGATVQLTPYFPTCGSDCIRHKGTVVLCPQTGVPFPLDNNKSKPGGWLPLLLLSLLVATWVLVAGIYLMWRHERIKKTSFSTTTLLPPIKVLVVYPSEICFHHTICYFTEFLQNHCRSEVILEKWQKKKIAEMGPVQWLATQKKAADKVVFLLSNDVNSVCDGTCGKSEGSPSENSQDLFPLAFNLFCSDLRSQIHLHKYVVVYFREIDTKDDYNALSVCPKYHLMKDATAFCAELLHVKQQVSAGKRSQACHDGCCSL

[2] = target: T2, human IL-17 receptor subunit A (human, UniProt Q96F46 33-320); experiment: ELISA, coated receptor; SM17 at 0.08 µg/mL; well 1
T2 construct: also called IL17RA; hIL17RA

[3] = target: T3, human IL-17 receptor subunit C (human, UniProt Q8NAC3-2 21-467, limits assumed); experiment: ELISA, coated receptor; SM17 at 0.08 µg/mL; well 1
T3 construct: also called IL17RC; hIL17RC
T3 sequence (looked up): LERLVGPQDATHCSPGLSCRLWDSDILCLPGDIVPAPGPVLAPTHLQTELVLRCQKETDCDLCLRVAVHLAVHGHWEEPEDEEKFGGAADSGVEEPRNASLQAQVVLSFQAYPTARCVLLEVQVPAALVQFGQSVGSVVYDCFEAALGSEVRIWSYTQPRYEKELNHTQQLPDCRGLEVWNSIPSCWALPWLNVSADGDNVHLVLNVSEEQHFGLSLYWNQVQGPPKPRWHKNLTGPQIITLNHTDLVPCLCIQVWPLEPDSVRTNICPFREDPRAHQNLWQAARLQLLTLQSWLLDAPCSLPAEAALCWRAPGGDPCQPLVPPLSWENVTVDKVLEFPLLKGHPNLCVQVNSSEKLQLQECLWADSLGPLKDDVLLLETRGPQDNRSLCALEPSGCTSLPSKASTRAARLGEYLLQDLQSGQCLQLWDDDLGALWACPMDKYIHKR

[4] = target: T4, human IL-17 receptor subunit D (human, UniProt Q8NFM7 28-299, limits assumed); experiment: ELISA, coated receptor; SM17 at 0.08 µg/mL; well 1
T4 construct: also called IL17RD; hIL 17RD
T4 sequence (looked up): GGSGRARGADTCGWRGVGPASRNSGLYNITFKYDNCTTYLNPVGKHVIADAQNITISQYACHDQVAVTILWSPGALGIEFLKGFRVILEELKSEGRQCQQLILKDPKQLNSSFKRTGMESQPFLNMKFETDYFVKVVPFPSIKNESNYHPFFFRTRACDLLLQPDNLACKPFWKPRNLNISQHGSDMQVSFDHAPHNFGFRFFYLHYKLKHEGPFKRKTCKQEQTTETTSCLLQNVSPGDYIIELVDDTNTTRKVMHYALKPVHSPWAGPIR

[5] = target: T5, human IL-17 receptor subunit E (human, UniProt Q8NFR9 24-454, limits assumed); experiment: ELISA, coated receptor; SM17 at 0.08 µg/mL; well 1
T5 construct: also called hIL17RE
T5 sequence (looked up): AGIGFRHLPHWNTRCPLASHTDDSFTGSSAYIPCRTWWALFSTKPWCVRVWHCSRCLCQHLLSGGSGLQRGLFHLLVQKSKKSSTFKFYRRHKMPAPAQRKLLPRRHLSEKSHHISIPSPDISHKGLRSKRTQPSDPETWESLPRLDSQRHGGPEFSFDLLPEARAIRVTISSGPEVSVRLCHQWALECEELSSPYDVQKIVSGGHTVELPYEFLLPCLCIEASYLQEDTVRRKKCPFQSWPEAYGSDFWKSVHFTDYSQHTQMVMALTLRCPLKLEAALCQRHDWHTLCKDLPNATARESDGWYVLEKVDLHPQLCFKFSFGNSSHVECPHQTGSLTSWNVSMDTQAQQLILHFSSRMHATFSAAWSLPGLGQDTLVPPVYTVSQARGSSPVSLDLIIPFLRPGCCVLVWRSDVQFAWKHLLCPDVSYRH

[6] = target: T1, human IL-17RB protein (recombinant, R&D …); experiment: ELISA, coated receptor; SM17 at 0.016 µg/mL; well 1
[7] = target: T2, human IL-17 receptor subunit A; experiment: as above
[8] = target: T4, human IL-17 receptor subunit D; experiment: as above
[9] = target: T5, human IL-17 receptor subunit E; experiment: as above
human TSLP (R&D systems) = target: T6, human TSLP (R&D systems) (human, UniProt Q969D9 29-159); experiment: BLI (Octet RED96), binder captured via anti-human Fab CH1, TSLP in solution
T6 construct: also called thymic stromal lymphopoietin
Description: Biosensors immobilized with irrelevant antibody (SM03, anti-human CD22 chimeric IgG1 antibody, SinoMab BioScience Limited, 20 μg/mL) were used as control reference.

[10] = target: T7, cynomolgus monkey IL-17RB protein (recombinant, R&D systems) (cynomolgus monkey, UniProt A0A2K5TUK1 18-289); experiment: BLI (Octet RED96), SM17 captured via anti-human Fab CH1, IL17RB in solution; trial 2
T7 construct: also called cynomolgus IL17RB; Cyno-IL17RB
T7 sequence: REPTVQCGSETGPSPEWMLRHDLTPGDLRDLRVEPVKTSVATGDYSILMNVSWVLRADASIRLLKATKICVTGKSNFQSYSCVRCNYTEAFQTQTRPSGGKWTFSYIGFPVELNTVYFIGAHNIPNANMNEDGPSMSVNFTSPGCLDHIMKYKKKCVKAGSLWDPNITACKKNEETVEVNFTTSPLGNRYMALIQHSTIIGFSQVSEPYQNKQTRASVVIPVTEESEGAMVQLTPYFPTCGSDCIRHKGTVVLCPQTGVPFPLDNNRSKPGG
Excerpt: Irrelevant antibody (SM03, anti-human CD22 chimeric IgG1 antibody, SinoMab BioScience Limited) was used as the control reference.

B1: SM17 (antibody, human IgG4 S228P, kappa, V domains shown)
VH: QVQLVQSGAEVKKPGASVKVSCKASGYTFISYWMNWVRQAPGQGLEWMGRIDPYDSEIQYNQKFKDRVTMTRDTSISTAYMELSRLRSDDTAVYYCARSGGFDWFAYWGQGTLVTVSS
VL: DIQMTQSPSSLSASVGDRVTITCRASENINSNLAWYQQKPGKAPKLLLYDVTNLADGVPSRFSGSGSGTDYTLTISSLQPEDFATYYCQHFWGPPYTFGGGTKVEIKR
notes: other paragraphs and claim 15 call the same entries VH and VL; also called humanized anti-IL17RB monoclonal antibody
OD 450 nm Absorption [1]: 0.79 OD450
OD 450 nm Absorption [2]: 0 OD450
OD 450 nm Absorption [3]: 0.02 OD450
OD 450 nm Absorption [4]: 0.03 OD450
OD 450 nm Absorption [5]: -0.04 OD450
OD 450 nm Absorption [6]: 0.35 OD450
OD 450 nm Absorption [7]: 0.01 OD450
OD 450 nm Absorption [8]: 0.07 OD450
OD 450 nm Absorption [9]: 0 OD450
Kd (human TSLP (R&D systems)): 100 nM
koff (human TSLP (R&D systems)): 0.001 s⁻¹
Kd [10]: 5.11 nM
koff [10]: 0.000215 s⁻¹
kon [10]: 42100 M⁻¹ s⁻¹
